B1: FES (protein, UniProt P07332 1-822, looked up)
Tyrosine-protein kinase …: MGFSSELCSPQGHGVLQQMQEAELRLLEGMRKWMAQRVKSDREYAGLLHHMSLQDSGGQSRAISPDSPISQSWAEITSQTEGLSRLLRQHAEDLNSGPLSKLSLLIRERQQLRKTYSEQWQQLQQELTKTHSQDIEKLKSQYRALARDSAQAKRKYQEASKDKDRDKAKDKYVRSLWKLFAHHNRYVLGVRAAQLHHQHHHQLLLPGLLRSLQDLHEEMACILKEILQEYLEISSLVQDEVVAIHREMAAAAARIQPEAEYQGFLRQYGSAPDVPPCVTFDESLLEEGEPLEPGELQLNELTVESVQHTLTSVTDELAVATEMVFRRQEMVTQLQQELRNEEENTHPRERVQLLGKRQVLQEALQGLQVALCSQAKLQAQQELLQTKLEHLGPGEPPPVLLLQDDRHSTSSSEQEREGGRTPTLEILKSHISGIFRPKFSLPPPLQLIPEVQKPLHEQLWYHGAIPRAEVAELLVHSGDFLVRESQGKQEYVLSVLWDGLPRHFIIQSLDNLYRLEGEGFPSIPLLIDHLLSTQQPLTKKSGVVLHRAVPKDKWVLNHEDLVLGEQIGRGNFGEVFSGRLRADNTLVAVKSCRETLPPDLKAKFLQEARILKQYSHPNIVRLIGVCTQKQPIYIVMELVQGGDFLTFLRTEGARLRVKTLLQMVGDAAAGMEYLESKCCIHRDLAARNCLVTEKNVLKISDFGMSREEADGVYAASGGLRQVPVKWTAPEALNYGRYSSESDVWSFGILLWETFSLGASPYPNLSNQQTREFVEKGGRLPCPELCPDAVFRLMEQCWAYEPGQRPSFSTIYQELQSIRKRHR
B2: BANK1 (protein, UniProt Q8NDB2 1-785, looked up)
B-cell scaffold protein with …: MLPAAPGKGLGSPDPAPCGPAPPGNTKDIIMIYEEDAEEWALYLTEVFLHVVKREAILLYRLENFSFRHLELLNLTSYKCKLLILSNSLLRDLTPKKCQFLEKILHSPKSVVTLLCGVKSSDQLYELLNISQSRWEISTEQEPEDYISVIQSIIFKDSEDYFEVNIPTDLRAKHSGEISERKEIEELSEASRNTIPLAVVLPTEIPCENPGEIFIILRDEVIGDTVEVEFTSSNKRIRTRPALWNKKVWCMKALEFPAGSVHVNVYCDGIVKATTKIKYYPTAKAKECLFRMADSGESLCQNSIEELDGVLTSIFKHEIPYYEFQSLQTEICSQNKYTHFKELPTLLHCAAKFGLKNLAIHLLQCSGATWASKMKNMEGSDPAHIAERHGHKELKKIFEDFSIQEIDINNEQENDYEEDIASFSTYIPSTQNPAFHHESRKTYGQSADGAEANEMEGEGKQNGSGMETKHSPLEVGSESSEDQYDDLYVFIPGADPENNSQEPLMSSRPPLPPPRPVANAFQLERPHFTLPGTMVEGQMERSQNWGHPGVRQETGDEPKGEKEKKEEEKEQEEEEDPYTFAEIDDSEYDMILANLSIKKKTGSRSFIINRPPAPTPRPTSIPPKEETTPYIAQVFQQKTARRQSDDDKFCGLPKKQDRARIESPAFSTLRGCLTDGQEELILLQEKVKNGKMSMDEALEKFKHWQMGKSGLEMIQQEKLRQLRDCIIGKRPEEENVYNKLTIVHHPGGKETAHNENKFYNVHFSNKLPARPQVEKEFGFCCKKDH
B3: Flt3L (protein, UniProt P49771 27-235, looked up)
Fms-related tyrosine kinase 3 …: TQDCSFQHSPISSDFAVKIRELSDYLLQDYPVTVASNLQDEELCGGLWRLVLAQRWMERLKTVAGSKMQGLLERVNTEIHFVTKCAFQPPPSCLRFVQTNISRLLQETSEQLVALKPWITRQNFSRCLELQCQPDSSTLPPPWSPRPLEATAPTAPQPPLLLLLLLPVGLLLLAAAWCLHWQRTRRRTPRPGEQVPPVPSPQDLLLVEH
B4: PLIN1 (protein, UniProt O60240 1-522, looked up)
Perilipin-1: MAVNKGLTLLDGDLPEQENVLQRVLQLPVVSGTCECFQKTYTSTKEAHPLVASVCNAYEKGVQSASSLAAWSMEPVVRRLSTQFTAANELACRGLDHLEEKIPALQYPPEKIASELKDTISTRLRSARNSISVPIASTSDKVLGAALAGCELAWGVARDTAEFAANTRAGRLASGGADLALGSIEKVVEYLLPPDKEESAPAPGHQQAQKSPKAKPSLLSRVGALTNTLSRYTVQTMARALEQGHTVAMWIPGVVPLSSLAQWGASVAMQAVSRRRSEVRVPWLHSLAAAQEEDHEDQTDTEGEDTEEEEELETEENKFSEVAALPGPRGLLGGVAHTLQKTLQTTISAVTWAPAAVLGMAGRVLHLTPAPAVSSTKGRAMSLSDALKGVTDNVVDTVVHYVPLPRLSLMEPESEFRDIDNPPAEVERREAERRASGAPSAGPEPAPRLAQPRRSLRSAQSPGAPPGPGLEDEVATPAAPRPGFPAVPREKPKRRVSDSFFRPSVMEPILGRTHYSQLRKKS
B5: NADK (protein, UniProt O95544 1-446, looked up)
NAD kinase: MEMEQEKMTMNKELSPDAAAYCCSACHGDETWSYNHPIRGRAKSRSLSASPALGSTKEFRRTRSLHGPCPVTTFGPKACVLQNPQTIMHIQDPASQRLTWNKSPKSVLVIKKMRDASLLQPFKELCTHLMEENMIVYVEKKVLEDPAIASDESFGAVKKKFCTFREDYDDISNQIDFIICLGGDGTLLYASSLFQGSVPPVMAFHLGSLGFLTPFSFENFQSQVTQVIEGNAAVVLRSRLKVRVVKELRGKKTAVHNGLGENGSQAAGLDMDVGKQAMQYQVLNEVVIDRGPSSYLSNVDVYLDGHLITTVQGDGVIVSTPTGSTAYAAAAGASMIHPNVPAIMITPICPHSLSFRPIVVPAGVELKIMLSPEARNTAWVSFDGRKRQEIRHGDSISITTSCYPLPSICVRDPVSDWFESLAQCLHWNVRKKQAHFEEEEEEEEEG
B6: ARG1 (protein, UniProt P05089 1-322, looked up)
Arginase-1: MSAKSRTIGIIGAPFSKGQPRGGVEEGPTVLRKAGLLEKLKEQECDVKDYGDLPFADIPNDSPFQIVKNPRSVGKASEQLAGKVAEVKKNGRISLVLGGDHSLAIGSISGHARVHPDLGVIWVDAHTDINTPLTTTSGNLHGQPVSFLLKELKGKIPDVPGFSWVTPCISAKDIVYIGLRDVDPGEHYILKTLGIKYFSMTEVDRLGIGKVMEETLSYLLGRKKRPIHLSFDVDGLDPSFTPATGTPVVGGLTYREGLYITEEIYKTGLLSGLDIMEVNPSLGKTPEEVTRTVNTAVAITLACFGLAREGNHKPIDYLNPPK
B7: CLEC1A (protein, UniProt Q8NC01 1-280, looked up)
C-type lectin domain family 1 …: MQAKYSSTRDMLDDDGDTTMSLHSQGSATTRHPEPRRTEHRAPSSTWRPVALTLLTLCLVLLIGLAALGLLFFQYYQLSNTGQDTISQMEERLGNTSQELQSLQVQNIKLAGSLQHVAEKLCRELYNKAGAHRCSPCTEQWKWHGDNCYQFYKDSKSWEDCKYFCLSENSTMLKINKQEDLEFAASQSYSEFFYSYWTGLLRPDSGKAWLWMDGTPFTSELFHIIIDVTSPRSRDCVAILNGMIFSKDCKELKRCVCERRAGMVKPESLHVPPETLGEGD
B8: TRANCE (protein, UniProt O14788 140-317, looked up)
Tumor necrosis factor ligand …: IRAEKAMVDGSWLDLAKRSKLEAQPFAHLTINATDIPSGSHKVSLSSWYHDRGWAKISNMTFSNGKLIVNQDGFYYLYANICFRHHETSGDLATEYLQLMVYVTKTSIKIPSSHTLMKGGSTKYWSGNSEFHFYSINVGGFFKLRSGEEISIEVSNPSLLDPDQDATYFGAFKVRDID
B9: ZBTB17 (protein, UniProt Q13105 1-803, looked up)
Zinc finger and BTB …: MDFPQHSQHVLEQLNQQRQLGLLCDCTFVVDGVHFKAHKAVLAACSEYFKMLFVDQKDVVHLDISNAAGLGQVLEFMYTAKLSLSPENVDDVLAVATFLQMQDIITACHALKSLAEPATSPGGNAEALATEGGDKRAKEEKVATSTLSRLEQAGRSTPIGPSRDLKEERGGQAQSAASGAEQTEKADAPREPPPVELKPDPTSGMAAAEAEAALSESSEQEMEVEPARKGEEEQKEQEEQEEEGAGPAEVKEEGSQLENGEAPEENENEESAGTDSGQELGSEARGLRSGTYGDRTESKAYGSVIHKCEDCGKEFTHTGNFKRHIRIHTGEKPFSCRECSKAFSDPAACKAHEKTHSPLKPYGCEECGKSYRLISLLNLHKKRHSGEARYRCEDCGKLFTTSGNLKRHQLVHSGEKPYQCDYCGRSFSDPTSKMRHLETHDTDKEHKCPHCDKKFNQVGNLKAHLKIHIADGPLKCRECGKQFTTSGNLKRHLRIHSGEKPYVCIHCQRQFADPGALQRHVRIHTGEKPCQCVMCGKAFTQASSLIAHVRQHTGEKPYVCERCGKRFVQSSQLANHIRHHDNIRPHKCSVCSKAFVNVGDLSKHIIIHTGEKPYLCDKCGRGFNRVDNLRSHVKTVHQGKAGIKILEPEEGSEVSVVTVDDMVTLATEALAATAVTQLTVVPVGAAVTADETEVLKAEISKAVKQVQEEDPNTHILYACDSCGDKFLDANSLAQHVRIHTAQALVMFQTDADFYQQYGPGGTWPAGQVLQAGELVFRPRDGAEGQPALAETSPTAPECPPPAE
B10: CD79B (protein, UniProt P40259 29-229, looked up)
B-cell antigen receptor …: ARSEDRYRNPKGSACSRIWQSPRFIARKRGFTVKMHCYMNSASGNVSWLWKQEMDENPQQLKLEKGRMEESQNESLATLTIQGIRFEDNGIYFCQQKCNNTSEVYQGCGTELRVMGFSTLAQLKQRNTLKDGIIMIQTLLIILFIIVPIFLLLDKDDSKAGMEEDHTYEGLDIDQTATYEDIVTLRTGEVKWSVGEHPGQE
B11: TNFRSF14 (protein, UniProt Q92956 39-283, looked up)
Tumor necrosis factor …: LPSCKEDEYPVGSECCPKCSPGYRVKEACGELTGTVCEPCPPGTYIAHLNGLSKCLQCQMCDPAMGLRASRNCSRTENAVCGCSPGHFCIVQDGDHCAACRAYATSSPGQRVQKGGTESQDTLCQNCPPGTFSPNGTLEECQHQTKCSWLVTKAGAGTSSSHWVWWFLSGSLVIVIVCSTVGLIICVKRRKPRGDVVKVIVSVQRKRQEAEGEATVIEALQAPPDVTTVAVEETIPSFTGRSPNH
B12: AMIGO2 (protein, UniProt Q86SJ2 40-522, looked up)
Amphoterin-induced protein 2: VCPTACICATDIVSCTNKNLSKVPGNLFRLIKRLDLSYNRIGLLDSEWIPVSFAKLNTLILRHNNITSISTGSFSTTPNLKCLDLSSNKLKTVKNAVFQELKVLEVLLLYNNHISYLDPSAFGGLSQLQKLYLSGNFLTQFPMDLYVGRFKLAELMFLDVSYNRIPSMPMHHINLVPGKQLRGIYLHGNPFVCDCSLYSLLVFWYRRHFSSVMDFKNDYTCRLWSDSRHSRQVLLLQDSFMNCSDSIINGSFRALGFIHEAQVGERLMVHCDSKTGNANTDFIWVGPDNRLLEPDKEMENFYVFHNGSLVIESPRFEDAGVYSCIAMNKQRLLNETVDVTINVSNFTVSRSHAHEAFNTAFTTLAACVASIVLVLLYLYLTPCPCKCKTKRQKNMLHQSNAHSSILSPGPASDASADERKAGAGKRVVFLEPLKDTAAGQNGKVRLFPSEAVIAEGILKSTRGKSDSDSVNSVFSDTPFVAST

Test system: plasma proteins
Assay: Plasma proteins modulated between baseline and day 28 in responders (CR, VGPR, PR; n = 19), Example 6 (Table 13)
Assay type: in vivo, human
Conditions: plasma protein (OLINK NPX); responders (CR, VGPR, PR; n = 19); itacitinib 200 mg or 300 mg QD with corticosteroids; day 28 vs baseline
Outline: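 Plasma at baseline/screening and day 28 profiled for >1000 proteins by OLINK proximity extension assay, reported as NPX (log2). Steroid-naive and steroid-refractory patients pooled. Paired and unpaired t tests, ANOVA and Pearson correlation applied; significance at P<0.05.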

Molecule	Fold Change, Decreased Expression from Baseline to Day 28	Fold Change, Increased Expression from Baseline to Day 28
B1	−1.4934	–
B2	−2.0084	–
B3	–	2.3423
B4	–	2.4338
B5	−1.3493	–
B6	−1.3036	–
B7	−1.2841	–
B8	−1.4034	–
B9	−1.2333	–
B10	−1.2372	–
B11	−1.2658	–
B12	−1.1962	–
